In general, Kd refers to the constant that tells how readily two partners part at equilibrium. A lower Kd goes with a tighter complex. The koff is the rate constant with which the complex falls apart. A low value points to a long-lived complex. For orientation: kon means the second-order rate constant of association. Higher therefore signals faster complex formation.

Test [1] concerns the target T1, murine high affinity IL-11 receptor complex (IL-11Rα with gp130) on 7TD1 cells (Class 2 sites) (mouse, UniProt Q64385 24-432; Q00560 23-917).
T1 sequence (looked up) 1: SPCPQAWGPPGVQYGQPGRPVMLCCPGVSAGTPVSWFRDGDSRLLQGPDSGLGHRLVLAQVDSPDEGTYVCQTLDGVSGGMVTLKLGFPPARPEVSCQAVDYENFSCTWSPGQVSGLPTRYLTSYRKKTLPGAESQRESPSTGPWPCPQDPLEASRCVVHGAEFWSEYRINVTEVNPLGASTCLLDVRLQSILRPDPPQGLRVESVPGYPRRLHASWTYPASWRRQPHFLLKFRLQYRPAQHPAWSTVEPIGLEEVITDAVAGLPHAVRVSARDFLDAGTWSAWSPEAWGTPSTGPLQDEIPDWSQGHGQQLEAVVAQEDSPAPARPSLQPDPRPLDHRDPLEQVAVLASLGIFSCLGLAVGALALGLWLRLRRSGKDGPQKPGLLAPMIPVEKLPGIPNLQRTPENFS
T1 sequence (looked up) 2: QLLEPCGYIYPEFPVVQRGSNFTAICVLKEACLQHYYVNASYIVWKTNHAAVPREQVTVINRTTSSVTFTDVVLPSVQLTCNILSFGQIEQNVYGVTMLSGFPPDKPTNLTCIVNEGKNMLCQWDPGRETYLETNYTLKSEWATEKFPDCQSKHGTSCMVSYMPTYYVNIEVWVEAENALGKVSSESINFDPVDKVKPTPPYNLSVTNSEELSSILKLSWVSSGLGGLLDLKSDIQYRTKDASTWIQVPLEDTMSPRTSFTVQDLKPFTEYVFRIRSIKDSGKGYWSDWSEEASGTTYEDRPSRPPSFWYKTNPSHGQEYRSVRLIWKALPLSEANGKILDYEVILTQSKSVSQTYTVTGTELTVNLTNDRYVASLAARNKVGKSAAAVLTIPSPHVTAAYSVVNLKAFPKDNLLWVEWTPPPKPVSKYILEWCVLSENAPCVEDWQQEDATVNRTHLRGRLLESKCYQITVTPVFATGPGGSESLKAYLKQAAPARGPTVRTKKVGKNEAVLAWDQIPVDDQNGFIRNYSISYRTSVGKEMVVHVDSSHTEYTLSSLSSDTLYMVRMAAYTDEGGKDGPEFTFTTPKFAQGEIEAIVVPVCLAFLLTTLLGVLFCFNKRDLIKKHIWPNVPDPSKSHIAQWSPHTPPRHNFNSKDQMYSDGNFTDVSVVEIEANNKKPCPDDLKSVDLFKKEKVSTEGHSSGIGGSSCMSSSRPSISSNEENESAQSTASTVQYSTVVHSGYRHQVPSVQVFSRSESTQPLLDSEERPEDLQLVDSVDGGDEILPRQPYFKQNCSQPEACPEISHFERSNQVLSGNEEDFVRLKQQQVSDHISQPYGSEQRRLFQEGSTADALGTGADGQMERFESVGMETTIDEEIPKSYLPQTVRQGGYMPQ
Nature of the test: cell-based or functional assay.

Test [2] deals with T2, fusion protein of human IL-11R and IL-2 (IL-11R-IL-2) (human, UniProt Q14626 23-370; P60568 21-153, limits assumed).
T2 construct: Amine-coupled to a CM5 chip at about 500 RU; also called human IL-11Rα-IL-2 fusion protein; recombinant human IL-11R-IL-2
Put plainly: SPR (BiaCore 2000), IL-11R-IL-2 amine-coupled to a CM5 chip. Here is the method: (§1) These experiments were performed with a BiaCore 2000 optical biosensor (BiaCore, Uppsala, Sweden). A fusion protein of human IL-11R and IL-2 (IL-11R-IL-2) [Blanc et al. (2000). Monoclonal antibodies against the human interleukin-11 receptor alpha-chain (IL-11Ralpha) and their use in studies of human mononuclear cells. J. Immunol. Methods 241, 43-59, the content of which is herein incorporated by reference] was coupled through primary amino groups to a carboxymethyl dextran flow cell (CM5) at a low immobilisation level (about 500 RU per flow cell) compatible with kinetic binding studies. Subsequent binding of parental FPΔIL-11 or mutein was carried out in Hepes-buffered saline (pH 7.4) at a flow rate of 10 μl/minute at room temperature.
(§2) In order to find out if mutagenesis and associated conformational change of H/V-D/A have an effect on its interaction with IL-11Rα, the association and dissociation kinetic constants (kₒₙ, koff) describing parent IL-11 and H/V-D/A mutein binding to human IL-11Rα were determined by surface plasmon resonance biosensor analysis using dextran-immobilized purified human IL-11Rα-IL-2 [Blanc et al. (2000), cited supra] fusion protein as matrix.

The target of test [3] is T3, human IL-11 receptor (human IL-11Rα and human gp130) on B13Rα1 cells (human, UniProt Q14626 23-422; P40189 23-918).
T3 construct: whole, on cells; also called Ba/F3 cells stably transfected with human gp130 and hIL-11Rα; Ba/F3 cells co-transfected with human IL-11Rα and human gp130
T3 sequence (looked up) 1: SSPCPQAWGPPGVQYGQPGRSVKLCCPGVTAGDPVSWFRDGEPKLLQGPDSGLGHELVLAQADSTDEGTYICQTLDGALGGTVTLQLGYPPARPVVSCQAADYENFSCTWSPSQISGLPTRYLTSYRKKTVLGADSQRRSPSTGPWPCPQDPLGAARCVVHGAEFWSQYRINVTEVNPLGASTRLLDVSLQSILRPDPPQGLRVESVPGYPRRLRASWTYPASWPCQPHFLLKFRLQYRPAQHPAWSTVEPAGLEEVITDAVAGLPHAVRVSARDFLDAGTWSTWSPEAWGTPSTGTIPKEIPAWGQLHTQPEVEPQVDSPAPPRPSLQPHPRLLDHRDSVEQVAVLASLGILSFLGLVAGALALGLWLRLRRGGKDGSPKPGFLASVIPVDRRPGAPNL
T3 sequence (looked up) 2: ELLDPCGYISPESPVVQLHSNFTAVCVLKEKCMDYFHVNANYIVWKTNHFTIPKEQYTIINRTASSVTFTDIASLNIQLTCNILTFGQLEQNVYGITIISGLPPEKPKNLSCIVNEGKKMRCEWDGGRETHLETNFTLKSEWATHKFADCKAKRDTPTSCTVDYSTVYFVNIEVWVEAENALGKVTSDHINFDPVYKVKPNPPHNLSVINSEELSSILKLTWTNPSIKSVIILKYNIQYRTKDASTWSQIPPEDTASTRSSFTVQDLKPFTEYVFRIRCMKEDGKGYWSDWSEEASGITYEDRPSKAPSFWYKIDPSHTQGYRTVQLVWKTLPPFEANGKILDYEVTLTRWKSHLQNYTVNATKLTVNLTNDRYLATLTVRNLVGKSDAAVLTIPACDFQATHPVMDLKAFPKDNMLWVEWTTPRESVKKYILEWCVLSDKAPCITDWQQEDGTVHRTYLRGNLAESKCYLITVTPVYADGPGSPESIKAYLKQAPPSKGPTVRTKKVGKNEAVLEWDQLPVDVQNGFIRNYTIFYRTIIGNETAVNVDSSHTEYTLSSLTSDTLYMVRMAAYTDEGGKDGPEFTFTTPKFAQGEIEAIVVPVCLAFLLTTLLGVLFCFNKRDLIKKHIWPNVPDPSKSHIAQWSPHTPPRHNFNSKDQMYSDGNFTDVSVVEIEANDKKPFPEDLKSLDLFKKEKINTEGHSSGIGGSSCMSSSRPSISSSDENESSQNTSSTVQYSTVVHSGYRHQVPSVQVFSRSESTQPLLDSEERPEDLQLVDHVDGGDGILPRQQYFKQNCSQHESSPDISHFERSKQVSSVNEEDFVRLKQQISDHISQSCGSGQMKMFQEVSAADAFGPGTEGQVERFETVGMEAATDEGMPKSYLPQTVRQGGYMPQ
Put plainly: Scatchard analysis, 32P-labelled ligand on B13Rα1 cells; unlabelled competitor H/V-D/A.

Test [4] addresses T3, human IL-11 receptor (human IL-11Rα and …). Nature of the test: Scatchard analysis, 32P-labelled ligand on B13Rα1 cells; unlabelled competitor FPΔIL-11.
Test [5] deals with T4, murine IL-11Rα on 7TD1 cells (Class 1, low affinity sites; isolated IL-11Rα chains) (mouse, UniProt Q64385 24-432).
T4 construct: whole, on cells; also called 7TD1 Class 1 sites
T4 sequence (looked up): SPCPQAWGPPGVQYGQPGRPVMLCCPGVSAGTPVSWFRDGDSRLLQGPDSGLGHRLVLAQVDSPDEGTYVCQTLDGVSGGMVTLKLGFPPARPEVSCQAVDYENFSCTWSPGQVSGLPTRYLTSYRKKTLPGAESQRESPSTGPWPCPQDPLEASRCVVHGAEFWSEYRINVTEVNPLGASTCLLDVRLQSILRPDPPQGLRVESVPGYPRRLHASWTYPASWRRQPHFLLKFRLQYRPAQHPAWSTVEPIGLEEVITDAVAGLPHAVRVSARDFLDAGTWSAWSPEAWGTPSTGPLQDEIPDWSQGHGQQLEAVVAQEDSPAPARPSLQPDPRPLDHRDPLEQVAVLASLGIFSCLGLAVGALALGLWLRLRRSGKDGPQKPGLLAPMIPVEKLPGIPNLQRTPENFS
Put plainly: Scatchard analysis, 32P-labelled ligand on 7TD1 cells, Class 1 sites; unlabelled competitor FPΔIL-11. Here is the method: (§3) Binding of ³²P-H/V-D/A on 7TD1 cells was carried out as described for the parental ³²P-FPΔIL-11 on B13Rα1 cells by Wang et al [Wang et al. (2002), cited supra, and incorporated by reference]. 7TD1 cells ([…]) were pre-incubated in culture medium lacking growth factor for 2 h and were washed 3 times with phosphate-buffered saline, pH 7.4 (PBS). For binding studies, radiolabelled H/V-D/A was added to cells at the indicated concentration in PBS containing 0.5% bovine serum albumin. The mixture was incubated at 4° C. for the appropriate time and bound radiolabelled H/V-D/A was separated from the free radioactivity by centrifugation at 3000 g for 1 min through a 0.2 ml layer of a mixture of 40% dioctyl phthalate and 60% dibutyl phthalate (Janssen Chimica, Beerse, Belgium). After quick freezing, the tip of each tube containing the cell pellet was cut-off and radioactivity was counted in a Beckman β-counter. Non-specific binding was determined by incubating cells with radiolabelled H/V-D/A in the presence of a 200-fold molar excess of unlabelled H/V-D/A. […]

Test [6] addresses T1, murine high affinity IL-11 receptor …. Put plainly: Scatchard analysis, 32P-labelled ligand on 7TD1 cells, Class 2 sites; unlabelled competitor FPΔIL-11. As for the experimental part:
as §3

Test [7] addresses T2, fusion protein of human IL-11R and IL-2 …. Put plainly: SPR, immobilized human IL-11Rα-IL-2. Here is the method:
as §1, §2
On the technique in general: In SPR one partner is held on a chip, and binding of the other changes the refractive index at the surface.

In test [8] the target is T4, murine IL-11Rα on 7TD1 cells (Class 1, …). Nature of the test: Scatchard analysis, 32P-labelled ligand on 7TD1 cells, low affinity sites. Here is the method:
as §3

Test [9] has the same target. Nature of the test: Scatchard analysis, 32P-labelled ligand on 7TD1 cells, Class 1 sites; unlabelled competitor H/V-D/A. As for the experimental part:
as §3

Test [10] deals with T1, murine high affinity IL-11 receptor …. Put plainly: Scatchard analysis, 32P-labelled ligand on 7TD1 cells, Class 2 sites; unlabelled competitor H/V-D/A. As for the experimental part: as §3

B1: commercial recombinant human IL-11 (rhIL-11, R&D) (ligand)
chain: PGPPPGPPRVSPDPRAELDSTVLLTRSLLADTRQLAAQLRDKFPADGDHNLDSLPTLAMSAGALGALQLPGVLTRLRADLLSYLRHVQWLRRAGGSSLKTLEPELGTLQARLDRLLRRLQLLMSRLALPQPPPDPPAPPLAPPSSAWGGIRAAHAILGGLHLTLDWAVRGLLLLKTRL
For B1, the “concentration required to induce half-maximal proliferation (EC50) of 7TD1 cells” value (“concentration required” below) in [1] worked out at 15 ng/mL.

B2: FPΔIL-11 (parental, non-mutated recombinant human IL-11 with Flag tag and phosphorylation site, deleted of the first 31 N-terminal amino acids) (ligand)
chain: MDYKDDDDKEGRRASVASPDPRAELDSTVLLTRSLLADTRQLAAQLRDKFPADGDHNLDSLPTLAMSAGALGALQLPGVLTRLRADLLSYLRHVQWLRRAGGSSLKTLEPELGTLQARLDRLLRRLQLLMSRLALPQPPPDPPAPPLAPPSSAWGGIRAAHAILGGLHLTLDWAVRGLLLLKTRL
notes: Produced in E. coli BL21(DE3); monomer by gel filtration; in SPR it was unlabelled; also called parental FPΔIL-11; parent IL-11
Take B2: the “concentration required” value in test [1] is 15 ng/mL. Also, the Kd in test [2] was determined as 165 nM; in test [3], 0.4 nM; in test [4], 0.44 nM; in [5], 7.2 nM; in [6], 0.65 nM. The molecule further yielded a koff in test [2] of 0.000975 s⁻¹. This molecule also returned a kon in test [2] of 5900 M⁻¹ s⁻¹.

B3: H/V-D/A mutein (FPΔIL-11 with H182V and D186A) (ligand)
chain: MDYKDDDDKEGRRASVASPDPRAELDSTVLLTRSLLADTRQLAAQLRDKFPADGDHNLDSLPTLAMSAGALGALQLPGVLTRLRADLLSYLRHVQWLRRAGGSSLKTLEPELGTLQARLDRLLRRLQLLMSRLALPQPPPDPPAPPLAPPSSAWGGIRAAHAILGGLVLTLAWAVRGLLLLKTRL
notes: in SPR it was unlabelled; also called H182V+D186A; mutant FPΔIL-11
For B3, in [1], the “concentration required” value came out at 0.03 ng/mL and the “fold lower EC50 of 7TD1 proliferation than wild-type IL-11” value turned out to be 400 fold. Moreover, in test [7], the “fold higher koff than parental FPΔIL-11” value stood at 14 fold, the “fold higher kon than parental FPΔIL-11” value turned out to be 35 fold and the “fold lower Kd than FPΔIL-11” value was 3 fold. Further, the “fold higher affinity than FPΔIL-11” value in test [8] is about 3 fold. This molecule also returned a Kd in [3] of 0.71 nM. Further, binding in test [4] was put at a Kd of 0.72 nM. Also, the Kd in test [9] came to 2.7 nM. This molecule yielded a Kd in [10] of 0.6 nM.

(Values after patent US20070190024A1 (INSERM INSTITUT NATIONAL DE LA SANTE ET DE LA RECH, published 2007).)
